Measured values taken from US5650488A, “Polypeptide inhibitor of the replication of HSV” (British Technology Group Limited, priority 1991, dated 1997).

Target: T1, TRF/Vmw 65/CFF complex (Homo sapiens, UniProt P51610)
T1 construct: A nuclear extract of HeLa cells was prepared; from tissue; host or cells: HeLa cell nuclear extract (TRF, CFF)
Experiment: Peptide inhibition of quaternary complex assembly (gel retardation with HeLa nuclear extract, purified Vmw 65 and 32P-labelled TAATGARAT probe)
Format: biochemical, HSV-1
Set-up: key to Level of Inhibition: "+++" indicates a high level inhibition of complex formation; "++" indicates a lower level and so on; "-" indicates no inhibition of complex formation
Procedure: A nuclear extract of HeLa cells was prepared exactly as described by Dignam et al., Nucl. Acids. Res. 11 1475-1489, (1983) (This is a standard protocol for the preparation of extracts containing cellular DNA binding proteins). Polypeptides from Vmw 65 amino acids were synthesised by Cambridge Research Biochemicals Ltd., Cambridge, UK, under contract, in accordance with the sequence set forth above. 1 μl volumes of phosphate buffered saline containing increasing amounts (100 ng, 500 ng, 1 μg, 2.5 μg, 5μg) of the polypeptide (amino acids 360-367) was added to a standard amount of HeLa cell nuclear extract (1 μl extract per 2 μg polypeptide). After incubation at 20° C. for 30 minutes a 1 μl sample of Vmw 65 protein, purified as described by P. O'Hare et al., EMBO J. 7: 4231-4238 (1988) was added to the extract polypeptide mixtures and incubation continued for a further 5 minutes in a buffer containing 25 mM HEPES pH 7.9, 1 mM EDTA, 5 mM DTT, 100 mM KCl, 0.05% NP40 10% glycerol, and 2 μg of salmon sperm DNA. A ^32 P radioactively labelled probe present in excess and encompassing nucleotides -171 to -149 (numbered starting upstream of the site of mRNA transcription: the TAATGARAT sequence is at -162 to -154) of the immediate-early IE110K gene of HSV-1 was then added and incubation continued for a further 25 minutes. […]

T1 sequence (P51610 whole entry, one chain of several): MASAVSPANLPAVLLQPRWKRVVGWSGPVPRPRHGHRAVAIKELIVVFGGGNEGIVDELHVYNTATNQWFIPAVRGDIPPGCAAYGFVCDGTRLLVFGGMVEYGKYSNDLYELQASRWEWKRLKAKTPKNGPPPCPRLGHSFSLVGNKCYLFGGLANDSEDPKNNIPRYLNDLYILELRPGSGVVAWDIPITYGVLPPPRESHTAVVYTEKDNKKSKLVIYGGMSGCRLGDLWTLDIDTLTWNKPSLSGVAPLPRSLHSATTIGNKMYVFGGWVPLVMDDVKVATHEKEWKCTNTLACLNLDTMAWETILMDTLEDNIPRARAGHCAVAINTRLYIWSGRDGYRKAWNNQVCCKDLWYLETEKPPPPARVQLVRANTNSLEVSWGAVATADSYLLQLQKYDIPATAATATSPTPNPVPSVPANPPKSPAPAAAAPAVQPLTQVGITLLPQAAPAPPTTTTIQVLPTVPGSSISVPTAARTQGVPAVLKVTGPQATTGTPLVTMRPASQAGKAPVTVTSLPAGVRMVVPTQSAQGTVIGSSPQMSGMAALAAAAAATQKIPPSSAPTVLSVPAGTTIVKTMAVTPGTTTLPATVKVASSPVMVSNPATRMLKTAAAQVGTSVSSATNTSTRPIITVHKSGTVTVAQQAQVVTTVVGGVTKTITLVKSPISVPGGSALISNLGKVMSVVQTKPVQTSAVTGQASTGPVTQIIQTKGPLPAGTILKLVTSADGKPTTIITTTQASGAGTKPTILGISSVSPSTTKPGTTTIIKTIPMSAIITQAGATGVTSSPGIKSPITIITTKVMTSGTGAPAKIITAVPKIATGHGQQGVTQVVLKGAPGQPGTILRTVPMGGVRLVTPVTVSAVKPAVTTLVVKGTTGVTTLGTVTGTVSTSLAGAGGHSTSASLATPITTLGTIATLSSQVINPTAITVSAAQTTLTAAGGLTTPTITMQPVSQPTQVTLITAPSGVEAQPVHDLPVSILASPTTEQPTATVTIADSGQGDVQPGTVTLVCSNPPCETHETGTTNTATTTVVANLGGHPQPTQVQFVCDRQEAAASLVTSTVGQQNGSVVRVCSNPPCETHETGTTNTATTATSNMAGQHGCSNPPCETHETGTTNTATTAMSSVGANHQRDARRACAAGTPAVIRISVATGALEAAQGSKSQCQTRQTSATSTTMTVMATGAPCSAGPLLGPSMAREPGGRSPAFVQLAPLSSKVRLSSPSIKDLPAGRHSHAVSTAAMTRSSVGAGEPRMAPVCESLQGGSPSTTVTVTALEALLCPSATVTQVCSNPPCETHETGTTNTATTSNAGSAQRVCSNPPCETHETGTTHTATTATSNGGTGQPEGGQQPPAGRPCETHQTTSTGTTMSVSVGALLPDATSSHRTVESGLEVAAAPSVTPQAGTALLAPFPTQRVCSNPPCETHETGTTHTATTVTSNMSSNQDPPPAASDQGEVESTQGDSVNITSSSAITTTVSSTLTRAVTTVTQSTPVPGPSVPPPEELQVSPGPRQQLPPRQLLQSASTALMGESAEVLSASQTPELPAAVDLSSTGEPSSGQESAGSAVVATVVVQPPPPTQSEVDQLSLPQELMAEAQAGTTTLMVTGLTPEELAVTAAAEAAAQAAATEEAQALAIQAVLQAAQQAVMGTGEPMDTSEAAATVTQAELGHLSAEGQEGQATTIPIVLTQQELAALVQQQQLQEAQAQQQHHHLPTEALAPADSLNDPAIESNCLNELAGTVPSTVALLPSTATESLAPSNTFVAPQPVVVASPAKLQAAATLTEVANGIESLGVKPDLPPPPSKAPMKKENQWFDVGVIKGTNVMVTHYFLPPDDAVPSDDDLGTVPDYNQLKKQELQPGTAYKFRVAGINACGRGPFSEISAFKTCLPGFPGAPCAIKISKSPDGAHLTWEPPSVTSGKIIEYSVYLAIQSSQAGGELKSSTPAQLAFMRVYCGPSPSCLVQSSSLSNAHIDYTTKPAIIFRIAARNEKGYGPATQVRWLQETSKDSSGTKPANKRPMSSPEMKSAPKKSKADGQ

355-367: polypeptide of region 355-367 of Vmw 65; 360-367 inhibitory region with 355-359 flanking stabilizing region
Level of Inhibition (inhibition of complex formation, experiment of Example 1 repeated with various Vmw-65 polypeptides): +++ | inhibiting complex formation (result in words) (summary of the Table): effective
